Values quoted from earlier work as cited in PMC4786785.

Biological target: Nterm1 (UniProt position 2, ----MPIAQIH)
Conditions: not stated (wild-type enzyme, described in the context of the natural tautomerase mechanism)

Substance: 4-oxalocrotonate tautomerase (4-OT) (Pseudomonas putida mt-2)
- pKa: ≈6.4
